Drawing on publication PMC8809517, “Cofactor-independent RNA editing by a synthetic S-type PPR protein”, this text covers Kd for 4 molecules.

A word on the Kd: it is the equilibrium constant for the complex coming apart.

Experiment in all cases: high-throughput RNA pulldown from lysate on Ni-NTA beads; HRP: 50 mM Tris pH 8, 150 mM NaCl, 1 mM beta-mercaptoethanol, 50 ug/ml BSA, 3 ug/ml yeast RNA, 0.5% heparin; ITC and FP: Tris pH 8, 200 mM KCl, 5% glycerol; MST: 50 mM Tris pH 8, 200 mM NaCl, 1 mM DTT, BSA, heparin, 0.05% Tween 20
What all share (settings): tags: N-terminal His-eGFP

In series [1] the target is T1, GFP-9S library array, motif 4 ND N98S;D124V (synthetic construct, N98S;D124V).
T1 chain: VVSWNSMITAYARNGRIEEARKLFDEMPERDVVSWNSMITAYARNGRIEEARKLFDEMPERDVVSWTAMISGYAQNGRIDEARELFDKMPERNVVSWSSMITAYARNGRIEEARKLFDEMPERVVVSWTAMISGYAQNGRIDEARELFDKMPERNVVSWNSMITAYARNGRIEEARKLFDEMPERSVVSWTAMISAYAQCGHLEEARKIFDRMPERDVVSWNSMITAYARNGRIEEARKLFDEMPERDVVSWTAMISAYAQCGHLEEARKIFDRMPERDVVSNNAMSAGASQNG

Series [2] deals with T2, GFP-9S library array, motif 4 ND N98P;D124R (synthetic construct, N98P;D124R).
T2 chain: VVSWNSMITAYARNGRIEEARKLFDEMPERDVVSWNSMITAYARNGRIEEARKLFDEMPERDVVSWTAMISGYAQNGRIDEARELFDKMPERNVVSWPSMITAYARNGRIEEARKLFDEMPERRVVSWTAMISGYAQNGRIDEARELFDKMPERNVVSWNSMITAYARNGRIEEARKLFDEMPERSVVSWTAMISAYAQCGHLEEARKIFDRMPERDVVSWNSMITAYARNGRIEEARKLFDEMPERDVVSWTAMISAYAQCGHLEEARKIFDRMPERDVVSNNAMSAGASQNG

Series [3] addresses T3, GFP-9S library array, motif 4 ND N98C;D124H (synthetic construct, N98C;D124H).
T3 chain: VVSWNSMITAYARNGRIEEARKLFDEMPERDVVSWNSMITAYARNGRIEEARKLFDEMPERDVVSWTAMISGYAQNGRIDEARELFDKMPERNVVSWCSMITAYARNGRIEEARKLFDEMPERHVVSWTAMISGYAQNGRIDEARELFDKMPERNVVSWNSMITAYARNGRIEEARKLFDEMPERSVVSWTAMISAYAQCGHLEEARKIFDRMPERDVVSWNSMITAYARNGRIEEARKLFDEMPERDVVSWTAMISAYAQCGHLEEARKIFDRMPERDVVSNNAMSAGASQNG

Series [4] concerns the target T4, GFP-9S library array, motif 4 ND N98P;D124Y (synthetic construct, N98P;D124Y).
T4 chain: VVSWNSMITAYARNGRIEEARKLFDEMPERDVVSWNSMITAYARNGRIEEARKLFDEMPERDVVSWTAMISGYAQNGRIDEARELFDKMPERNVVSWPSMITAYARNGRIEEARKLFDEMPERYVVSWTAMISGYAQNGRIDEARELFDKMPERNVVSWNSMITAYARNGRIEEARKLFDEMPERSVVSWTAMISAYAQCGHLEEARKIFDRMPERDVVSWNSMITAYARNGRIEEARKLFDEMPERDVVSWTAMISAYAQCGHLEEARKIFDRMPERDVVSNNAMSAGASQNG

In series [5] the target is T5, GFP-9S library array, motif 4 ND D124I (synthetic construct, D124I).
T5 chain: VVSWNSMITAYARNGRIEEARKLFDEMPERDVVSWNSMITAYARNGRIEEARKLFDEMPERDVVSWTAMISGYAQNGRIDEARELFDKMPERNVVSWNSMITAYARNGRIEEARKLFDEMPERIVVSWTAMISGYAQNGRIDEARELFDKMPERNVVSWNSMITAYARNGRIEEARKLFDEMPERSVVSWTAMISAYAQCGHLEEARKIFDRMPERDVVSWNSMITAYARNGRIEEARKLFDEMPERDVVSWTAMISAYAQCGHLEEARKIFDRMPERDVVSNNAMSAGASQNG

B1: IR-rpoA-U (ssRNA)
RNA: AUUAUACGUGA
Take B1: the Kd in series [1] (label: 5' IRDye 800CW) worked out at 152 nM; in series [2] (label: 5' IRDye 800CW), 245 nM; in series [3] (label: 5' IRDye 800CW), 152 nM; in series [4] (label: 5' IRDye 800CW) it was 299 nM; in series [5] (label: 5' IRDye 800CW), 26.7 nM.

B2: IR-rpoA-A (ssRNA)
RNA: AUUAAACGUGA
For the molecule B2, the Kd in series [1] (label: 5' IRDye 800CW) amounted to 51.2 nM; in series [2] (label: 5' IRDye 800CW) it was 329 nM; in series [3] (label: 5' IRDye 800CW), 25.4 nM; in series [4] (label: 5' IRDye 800CW), 416 nM; in series [5] (label: 5' IRDye 800CW) it was 184 nM.

B3: Cy5-rpoA (ssRNA)
RNA: AUUACACGUGA
As to B3, the Kd in series [1] (label: 5' Cy5) was determined as 114 nM; in series [2] (label: 5' Cy5) it was 151 nM; in series [3] (label: 5' Cy5), 124 nM; in series [4] (label: 5' Cy5), 146 nM; in series [5] (label: 5' Cy5), 53.8 nM.

B4: Cy5-rpoA-G (ssRNA)
RNA: AUUAGACGUGA
Regarding B4, the Kd in series [1] (label: 5' Cy5) was found to be 74.5 nM; in series [2] (label: 5' Cy5), 166 nM; in series [3] (label: 5' Cy5), 57.7 nM; in series [4] (label: 5' Cy5) it was 168 nM; in series [5] (label: 5' Cy5), 86.2 nM.
